How the values were obtained:
[1] = target: T1, EGFR (form used in the assay not stated) (human, UniProt P00533 25-645, limits assumed); experiment: ELISA, NEM conjugate, 100 nM
[2] = target: T1, EGFR (form used in the assay not stated); experiment: ELISA, NEM conjugate, 10 nM
[3] = target: T1, EGFR (form used in the assay not stated); experiment: ELISA, NEM conjugate, 500 nM

Binder | binding relative to P54AR4-83v2 parent [1] [ratio] | binding relative to P54AR4-83v2 parent [2] [ratio] | binding relative to P54AR4-83v2 parent [3] [ratio]
P54AR4-83v2 L88C, NEM conjugate (designed binder, not shown: small tags and cut ends, N-ethyl maleimide (NEM) on Cys 88) LPAPKNLVVSEVTEDSARLSWDDPWAFYESFLIQYQESEKVGEAIVLTVPGSERSYDLTGLKPGTEYTVSIYGVHNVYKDTNMRGLPCSAIFTT | 1.03 | 0.95 | 0.97
P54AR4-83v2 M83C, NEM conjugate (designed binder, not shown: small tags and cut ends, N-ethyl maleimide (NEM) on Cys 83) LPAPKNLVVSEVTEDSARLSWDDPWAFYESFLIQYQESEKVGEAIVLTVPGSERSYDLTGLKPGTEYTVSIYGVHNVYKDTNCRGLPLSAIFTT | 0.04 | 0.07 | 0.24
P54AR4-83v2 N6C, NEM conjugate (designed binder, not shown: small tags and cut ends, N-ethyl maleimide (NEM) on Cys 6) LPAPKCLVVSEVTEDSARLSWDDPWAFYESFLIQYQESEKVGEAIVLTVPGSERSYDLTGLKPGTEYTVSIYGVHNVYKDTNMRGLPLSAIFTT | 1.01 | 0.76 | 0.89
P54AR4-83v2 N76C, NEM conjugate (designed binder, not shown: small tags and cut ends, N-ethyl maleimide (NEM) on Cys 76) LPAPKNLVVSEVTEDSARLSWDDPWAFYESFLIQYQESEKVGEAIVLTVPGSERSYDLTGLKPGTEYTVSIYGVHCVYKDTNMRGLPLSAIFTT | 0.97 | 0.75 | 0.91
P54AR4-83v2 N82C, NEM conjugate (designed binder, not shown: small tags and cut ends, N-ethyl maleimide (NEM) on Cys 82) LPAPKNLVVSEVTEDSARLSWDDPWAFYESFLIQYQESEKVGEAIVLTVPGSERSYDLTGLKPGTEYTVSIYGVHNVYKDTCMRGLPLSAIFTT | 0.97 | 0.56 | 0.96
P54AR4-83v2 P2C, NEM conjugate (designed binder, not shown: small tags and cut ends, N-ethyl maleimide (NEM) on Cys 2) LCAPKNLVVSEVTEDSARLSWDDPWAFYESFLIQYQESEKVGEAIVLTVPGSERSYDLTGLKPGTEYTVSIYGVHNVYKDTNMRGLPLSAIFTT | 0 | 0 | 0.01
P54AR4-83v2 P4C, NEM conjugate (designed binder, not shown: small tags and cut ends, N-ethyl maleimide (NEM) on Cys 4) LPACKNLVVSEVTEDSARLSWDDPWAFYESFLIQYQESEKVGEAIVLTVPGSERSYDLTGLKPGTEYTVSIYGVHNVYKDTNMRGLPLSAIFTT | 0.02 | 0.02 | 0.12
P54AR4-83v2 P24C, NEM conjugate (designed binder, not shown: small tags and cut ends, N-ethyl maleimide (NEM) on Cys 24) LPAPKNLVVSEVTEDSARLSWDDCWAFYESFLIQYQESEKVGEAIVLTVPGSERSYDLTGLKPGTEYTVSIYGVHNVYKDTNMRGLPLSAIFTT | 0.85 | 0.45 | 0.83
P54AR4-83v2 P50C, NEM conjugate (designed binder, not shown: small tags and cut ends, N-ethyl maleimide (NEM) on Cys 50) LPAPKNLVVSEVTEDSARLSWDDPWAFYESFLIQYQESEKVGEAIVLTVCGSERSYDLTGLKPGTEYTVSIYGVHNVYKDTNMRGLPLSAIFTT | 1.05 | 0.91 | 0.97
P54AR4-83v2 P63C, NEM conjugate (designed binder, not shown: small tags and cut ends, N-ethyl maleimide (NEM) on Cys 63) LPAPKNLVVSEVTEDSARLSWDDPWAFYESFLIQYQESEKVGEAIVLTVPGSERSYDLTGLKCGTEYTVSIYGVHNVYKDTNMRGLPLSAIFTT | 1.02 | 0.95 | 0.92
P54AR4-83v2 P87C, NEM conjugate (designed binder, not shown: small tags and cut ends, N-ethyl maleimide (NEM) on Cys 87) LPAPKNLVVSEVTEDSARLSWDDPWAFYESFLIQYQESEKVGEAIVLTVPGSERSYDLTGLKPGTEYTVSIYGVHNVYKDTNMRGLCLSAIFTT | 0.93 | 0.73 | 0.91
P54AR4-83v2 Q34C, NEM conjugate (designed binder, not shown: small tags and cut ends, N-ethyl maleimide (NEM) on Cys 34) LPAPKNLVVSEVTEDSARLSWDDPWAFYESFLICYQESEKVGEAIVLTVPGSERSYDLTGLKPGTEYTVSIYGVHNVYKDTNMRGLPLSAIFTT | 1.03 | 0.89 | 0.94
P54AR4-83v2 R18C, NEM conjugate (designed binder, not shown: small tags and cut ends, N-ethyl maleimide (NEM) on Cys 18) LPAPKNLVVSEVTEDSACLSWDDPWAFYESFLIQYQESEKVGEAIVLTVPGSERSYDLTGLKPGTEYTVSIYGVHNVYKDTNMRGLPLSAIFTT | 1.05 | 0.86 | 0.94
P54AR4-83v2 R54C, NEM conjugate (designed binder, not shown: small tags and cut ends, N-ethyl maleimide (NEM) on Cys 54) LPAPKNLVVSEVTEDSARLSWDDPWAFYESFLIQYQESEKVGEAIVLTVPGSECSYDLTGLKPGTEYTVSIYGVHNVYKDTNMRGLPLSAIFTT | 1.01 | 0.89 | 0.93
P54AR4-83v2 R84C, NEM conjugate (designed binder, not shown: small tags and cut ends, N-ethyl maleimide (NEM) on Cys 84) LPAPKNLVVSEVTEDSARLSWDDPWAFYESFLIQYQESEKVGEAIVLTVPGSERSYDLTGLKPGTEYTVSIYGVHNVYKDTNMCGLPLSAIFTT | 1.04 | 0.91 | 0.98
P54AR4-83v2 S10C, NEM conjugate (designed binder, not shown: small tags and cut ends, N-ethyl maleimide (NEM) on Cys 10) LPAPKNLVVCEVTEDSARLSWDDPWAFYESFLIQYQESEKVGEAIVLTVPGSERSYDLTGLKPGTEYTVSIYGVHNVYKDTNMRGLPLSAIFTT | 1.07 | 0.83 | 0.96
P54AR4-83v2 S16C, NEM conjugate (designed binder, not shown: small tags and cut ends, N-ethyl maleimide (NEM) on Cys 16) LPAPKNLVVSEVTEDCARLSWDDPWAFYESFLIQYQESEKVGEAIVLTVPGSERSYDLTGLKPGTEYTVSIYGVHNVYKDTNMRGLPLSAIFTT | 1.05 | 0.88 | 0.63
P54AR4-83v2 S20C, NEM conjugate (designed binder, not shown: small tags and cut ends, N-ethyl maleimide (NEM) on Cys 20, also called 520C) LPAPKNLVVSEVTEDSARLCWDDPWAFYESFLIQYQESEKVGEAIVLTVPGSERSYDLTGLKPGTEYTVSIYGVHNVYKDTNMRGLPLSAIFTT | 1.05 | 0.81 | 0.91
P54AR4-83v2 S30C, NEM conjugate (designed binder, not shown: small tags and cut ends, N-ethyl maleimide (NEM) on Cys 30, also called 530C) LPAPKNLVVSEVTEDSARLSWDDPWAFYECFLIQYQESEKVGEAIVLTVPGSERSYDLTGLKPGTEYTVSIYGVHNVYKDTNMRGLPLSAIFTT | 1.02 | 0.9 | 0.9
P54AR4-83v2 S38C, NEM conjugate (designed binder, not shown: small tags and cut ends, N-ethyl maleimide (NEM) on Cys 38) LPAPKNLVVSEVTEDSARLSWDDPWAFYESFLIQYQECEKVGEAIVLTVPGSERSYDLTGLKPGTEYTVSIYGVHNVYKDTNMRGLPLSAIFTT | 0.93 | 0.8 | 0.82
P54AR4-83v2 S52C, NEM conjugate (designed binder, not shown: small tags and cut ends, N-ethyl maleimide (NEM) on Cys 52) LPAPKNLVVSEVTEDSARLSWDDPWAFYESFLIQYQESEKVGEAIVLTVPGCERSYDLTGLKPGTEYTVSIYGVHNVYKDTNMRGLPLSAIFTT | 1.03 | 0.78 | 0.93
P54AR4-83v2 S55C, NEM conjugate (designed binder, not shown: small tags and cut ends, N-ethyl maleimide (NEM) on Cys 55) LPAPKNLVVSEVTEDSARLSWDDPWAFYESFLIQYQESEKVGEAIVLTVPGSERCYDLTGLKPGTEYTVSIYGVHNVYKDTNMRGLPLSAIFTT | 0 | 0 | 0.11
P54AR4-83v2 S70C, NEM conjugate (designed binder, not shown: small tags and cut ends, N-ethyl maleimide (NEM) on Cys 70, also called 570C) LPAPKNLVVSEVTEDSARLSWDDPWAFYESFLIQYQESEKVGEAIVLTVPGSERSYDLTGLKPGTEYTVCIYGVHNVYKDTNMRGLPLSAIFTT | 1.01 | 0.86 | 0.93
P54AR4-83v2 S89C, NEM conjugate (designed binder, not shown: small tags and cut ends, N-ethyl maleimide (NEM) on Cys 89) LPAPKNLVVSEVTEDSARLSWDDPWAFYESFLIQYQESEKVGEAIVLTVPGSERSYDLTGLKPGTEYTVSIYGVHNVYKDTNMRGLPLCAIFTT | 1.02 | 0.97 | 1.04
P54AR4-83v2 T13C, NEM conjugate (designed binder, not shown: small tags and cut ends, N-ethyl maleimide (NEM) on Cys 13) LPAPKNLVVSEVCEDSARLSWDDPWAFYESFLIQYQESEKVGEAIVLTVPGSERSYDLTGLKPGTEYTVSIYGVHNVYKDTNMRGLPLSAIFTT | 1.04 | 0.87 | 0.9
P54AR4-83v2 T48C, NEM conjugate (designed binder, not shown: small tags and cut ends, N-ethyl maleimide (NEM) on Cys 48) LPAPKNLVVSEVTEDSARLSWDDPWAFYESFLIQYQESEKVGEAIVLCVPGSERSYDLTGLKPGTEYTVSIYGVHNVYKDTNMRGLPLSAIFTT | 1 | 0.88 | 0.93
P54AR4-83v2 T59C, NEM conjugate (designed binder, not shown: small tags and cut ends, N-ethyl maleimide (NEM) on Cys 59) LPAPKNLVVSEVTEDSARLSWDDPWAFYESFLIQYQESEKVGEAIVLTVPGSERSYDLCGLKPGTEYTVSIYGVHNVYKDTNMRGLPLSAIFTT | 1.04 | 0.83 | 0.93
P54AR4-83v2 T68C, NEM conjugate (designed binder, not shown: small tags and cut ends, N-ethyl maleimide (NEM) on Cys 68, not used) LPAPKNLVVSEVTEDSARLSWDDPWAFYESFLIQYQESEKVGEAIVLTVPGSERSYDLTGLKPGTEYCVSIYGVHNVYKDTNMRGLPLSAIFTT | 1.04 | 0.83 | 0.95

Source: US20210301025A1 (published 2021)
